Source: paper PMC3140568 (Journal of immunology (Baltimore, Md. : 1950), 2011)
Square brackets hold non-standard residues; d marks the D form. Ends that are not written are not given here. pS = N[C@@H](COP(=O)(O)O)C(=O)O

Target: T1, TNF receptor-associated death domain protein, wild type (human, UniProt Q15628 1-312)
T1 sequence (looked up): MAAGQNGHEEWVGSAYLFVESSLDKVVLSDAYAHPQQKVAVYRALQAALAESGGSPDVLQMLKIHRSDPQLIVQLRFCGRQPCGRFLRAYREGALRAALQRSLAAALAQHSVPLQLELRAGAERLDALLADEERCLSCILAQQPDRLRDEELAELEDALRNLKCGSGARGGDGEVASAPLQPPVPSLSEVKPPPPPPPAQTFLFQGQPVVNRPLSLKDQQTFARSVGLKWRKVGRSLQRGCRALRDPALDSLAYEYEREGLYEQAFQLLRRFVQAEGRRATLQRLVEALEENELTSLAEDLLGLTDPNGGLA
Test: peptide competition on an immuno-purified complex

## VRRLGL[pS]DHEIDRLELQNGRC (peptide, UniProt P19438 375-395, looked up) [phosphorylated peptide containing the S381XXE motif of TNFR1 (position 375–395)]
  binding result: binds
